From PMC3641136

How the values were obtained:
[1] = target: calnexin (CNX), endogenous in COS7 cells; assay: sequential co-immunoprecipitation (CNX then GlyT2 antibodies), densitometry of fluorograms; conditions: 15 min [35S]methionine/cysteine pulse, 30 min chase, n = 3, parent: est. 100, read off a plot
[2] = target: calnexin (CNX), endogenous in COS7 cells (African green monkey (endogenous in COS7)); assay: co-IP; COS7 cells pulse-labeled 15 min with [35S]methionine/cysteine and chased; sequential immunoprecipitation with anti-CNX, then anti-GlyT2 antibodies (1% CHAPS); SDS-PAGE, fluorography, densitometry; also after treatment of cells with tunicamycin, castanospermine, deoxynojirimycin, deoxymannojirimycin, kifunensin, or at 45°C

percent of parent [1] | half-life of the complex (pulse-chase) [2] | Molecule
72 % of wtGlyT2 | – | neuronal glycine transporter 2 (GlyT2), wild type (from UniProt P58295) N3
48 % of wtGlyT2 | – | neuronal glycine transporter 2 (GlyT2), wild type (from UniProt P58295) N234
62 % of wtGlyT2 | – | neuronal glycine transporter 2 (GlyT2), wild type (from UniProt P58295) N23
51 % of wtGlyT2 | – | neuronal glycine transporter 2 (GlyT2), wild type (from UniProt P58295) N366D
74 % of wtGlyT2 | – | neuronal glycine transporter 2 (GlyT2), wild type (from UniProt P58295) N345D; N355D; N360D; N366D
62 % of wtGlyT2 | – | neuronal glycine transporter 2 (GlyT2), wild type (from UniProt P58295) N2
69 % of wtGlyT2 | – | neuronal glycine transporter 2 (GlyT2), wild type (from UniProt P58295) N1
35 % of wtGlyT2 | – | neuronal glycine transporter 2 (GlyT2), wild type (from UniProt P58295) N123
85 % of wtGlyT2 | – | neuronal glycine transporter 2 (GlyT2), wild type (from UniProt P58295) N13
– | 1 h | neuronal glycine transporter 2 (GlyT2), wild type (natural protein, N-glycans on asparagines 345, 355, 360 and 366; the CNX-bound form is the 75 kDa under-glycosylated, EndoH-sensitive precursor) MDCSAPKEMNKPPTNILEATVPGHRDSPRAPRTSPEQDLPAAAPAAAVQPPRVPRSASTGAQTFQSADARACEAQRPGVGFCKLSSPQAQATSAALRDLSEGHSAQANPPSGAAGAGNALHCKIPALRGPEEDENVSVGKGTLEHNNTPAVGWVNMSQSTVVLGTDGIASVLPGSVATTTIPEDEQGDENKARGNWSSKLDFILSMVGYAVGLGNVWRFPYLAFQNGGGAFLIPYLMMLALAGLPIFFLEVSLGQFASQGPVSVWKAIPALQGCGIAMLIISVLIAIYYNVIICYTLFYLFASFVSVLPWGSCNNPWNTPECKDKTKLLLDSCVIGDHPKIQIKNSTFCMTAYPNLTMVNFTSQANKTFVSGSEEYFKYFVLKISAGIEYPGEIRWPLAFCLFLAWVIVYASLAKGIKTSGKVVYFTATFPYVVLVILLIRGVTLPGAGAGIWYFITPKWEKLTDATVWKDAATQIFFSLSAAWGGLITLSSYNKFHNNCYRDTLIVTCTNSATSIFAGFVIFSVIGFMANERKVNIENVADQGPGIAFVVYPEALTRLPLSPFWAIIFFLMLLTLGLDTMFATIETIVTSISDEFPKYLRTHKPVFTLGCCICFFIMGFPMITQGGIYMFQLVDTYAASYALVIIAIFELVGISYVYGLQRFCEDIEMMIGFQPNIFWKVCWAFVTPTILTFILCFSFYQWEPMTYGSYRYPNWSMVLGWLMLACSVIWIPIMFVIKMYLAPGRFIERLKLVCSPQPDWGPFLAQHRGERYKNMIDPLGTSSLGLKLPVKDLELGTQC
